Measured values published in patent publication US20140178332A1 (published 2014).
Read-outs that look alike come from different tables or passages of the source.

T1: recombinant purified human IL-12 p70 (human, UniProt P29459 23-219)
T1 construct: Disulfide-linked heterodimer of p35 and p40; also called hIL-12; Hu IL-12
T1 sequence 1: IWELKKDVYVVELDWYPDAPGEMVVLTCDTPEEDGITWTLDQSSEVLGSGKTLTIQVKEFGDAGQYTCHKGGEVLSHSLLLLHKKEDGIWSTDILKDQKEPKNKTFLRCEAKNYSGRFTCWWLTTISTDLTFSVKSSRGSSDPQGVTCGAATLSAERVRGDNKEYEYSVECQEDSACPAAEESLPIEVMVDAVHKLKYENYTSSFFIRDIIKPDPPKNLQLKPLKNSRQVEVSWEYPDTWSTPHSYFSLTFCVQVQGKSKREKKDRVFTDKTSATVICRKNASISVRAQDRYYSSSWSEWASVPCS
T1 sequence 2: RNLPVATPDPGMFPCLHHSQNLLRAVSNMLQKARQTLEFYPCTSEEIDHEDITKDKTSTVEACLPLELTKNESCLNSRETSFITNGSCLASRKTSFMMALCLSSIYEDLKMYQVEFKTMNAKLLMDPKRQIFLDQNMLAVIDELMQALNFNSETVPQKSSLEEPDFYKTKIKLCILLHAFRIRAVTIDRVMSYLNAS

T2: recombinant purified cyno IL-12 p70 (cynomolgus monkey)
T2 chain 1: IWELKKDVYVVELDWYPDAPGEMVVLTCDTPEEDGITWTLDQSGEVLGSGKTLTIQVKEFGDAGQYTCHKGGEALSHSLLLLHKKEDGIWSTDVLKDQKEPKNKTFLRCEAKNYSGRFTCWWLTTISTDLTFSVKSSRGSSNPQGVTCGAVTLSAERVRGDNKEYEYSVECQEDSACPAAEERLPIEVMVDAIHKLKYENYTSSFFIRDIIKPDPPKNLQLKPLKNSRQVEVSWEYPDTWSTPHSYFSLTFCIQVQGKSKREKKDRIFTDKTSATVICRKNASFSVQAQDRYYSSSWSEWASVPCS
T2 chain 2: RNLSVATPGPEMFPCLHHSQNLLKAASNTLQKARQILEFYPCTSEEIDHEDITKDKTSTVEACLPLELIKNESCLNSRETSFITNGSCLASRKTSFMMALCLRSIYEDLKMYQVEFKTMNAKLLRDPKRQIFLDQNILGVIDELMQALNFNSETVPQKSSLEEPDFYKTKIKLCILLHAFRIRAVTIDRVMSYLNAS

T3: recombinant purified mouse IL-12 (Peprotech) (mouse, UniProt P43432 23-335; P43431 23-215)
T3 construct: Bought reagent; also called mu IL-12; murine IL-12
T3 sequence (looked up) 1: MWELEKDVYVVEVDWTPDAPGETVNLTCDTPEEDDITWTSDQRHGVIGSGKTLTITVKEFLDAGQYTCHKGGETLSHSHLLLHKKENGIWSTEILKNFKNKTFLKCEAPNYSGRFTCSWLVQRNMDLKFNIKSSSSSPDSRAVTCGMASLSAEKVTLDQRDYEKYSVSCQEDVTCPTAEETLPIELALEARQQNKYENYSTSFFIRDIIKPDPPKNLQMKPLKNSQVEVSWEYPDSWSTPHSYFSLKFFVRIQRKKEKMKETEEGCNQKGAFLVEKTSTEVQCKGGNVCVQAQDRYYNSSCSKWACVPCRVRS
T3 sequence (looked up) 2: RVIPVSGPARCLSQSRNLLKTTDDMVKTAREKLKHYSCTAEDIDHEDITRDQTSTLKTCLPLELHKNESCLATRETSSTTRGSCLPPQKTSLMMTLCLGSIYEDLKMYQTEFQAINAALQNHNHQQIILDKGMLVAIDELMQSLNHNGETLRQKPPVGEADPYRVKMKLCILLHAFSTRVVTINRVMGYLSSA


Columns and labels:
[1] = biological target: T1, recombinant purified human IL-12 p70; experiment: SPR (BIAcore) as in Example 1.1.B
Method: (§1) The BIACORE assay (Biacore, Inc, Piscataway, N.J.) determines the affinity of antibodies with kinetic measurements of on-, off-rate constants. Binding of antibodies to recombinant purified human IL-12 p70 or recombinant purified human IL-12 p40 were determined by surface plasmon resonance-based measurements with a Biacore® 3000 instrument (Biacore® AB, Uppsala, Sweden) using running HBS-EP (10 mM HEPES [pH 7.4], 150 mM NaCl, 3 mM EDTA, and 0.005% surfactant P20) at 25° C. All chemicals were obtained from Biacore® AB (Uppsala, Sweden) or otherwise from a different source as described in the text. Approximately 5000 RU of goat anti-mouse IgG, (Fcγ), fragment specific polyclonal antibody (Pierce Biotechnology Inc, Rockford, Ill.) diluted in 10 mM sodium acetate (pH 4.5) was directly immobilized across a CM5 research grade biosensor chip using a standard amine coupling kit according to manufacturer's instructions and procedures at 25 μg/ml. Unreacted moieties on the biosensor surface were blocked with ethanolamine. Modified carboxymethyl dextran surface in flowcell 2 and 4 was used as a reaction surface. Unmodified carboxymethyl dextran without goat anti-mouse IgG in flow cell 1 and 3 was used as the reference surface. For kinetic analysis, rate equations derived from the 1:1 Langmuir binding model were fitted simultaneously to association and dissociation phases of all eight injections (using global fit analysis) with the use of Biaevaluation 4.0.1 software. Purified antibodies were diluted in HEPES-buffered saline for capture across goat anti-mouse IgG specific reaction surfaces. Mouse antibodies to be captured as a ligand (25 μg/ml) were injected over reaction matrices at a flow rate of 5 μl/min. The association and dissociation rate constants, kₒₙ (unit M⁻¹ s⁻¹) and koff (unit s⁻¹) were determined under a continuous flow rate of 25 μl/min. Rate constants were derived by making kinetic binding measurements at ten different antigen concentrations ranging from 10-200 nM. The equilibrium dissociation constant (unit M) of the reaction between mouse antibodies and recombinant purified human IL-12 p70 or recombinant purified human IL-12 p40 was then calculated from the kinetic rate constants by the following formula: KD=koff/kₒₙ. Binding is recorded as a function of time and kinetic rate constants are calculated.

[2] = biological target: T2, recombinant purified cyno IL-12 p70; experiment: cell-based or functional assay
[3] = biological target: T1, recombinant purified human IL-12 p70; experiment: cell-based or functional assay
[4] = biological target: T2, recombinant purified cyno IL-12 p70; experiment: cell-based or functional assay
[5] = biological target: T1, recombinant purified human IL-12 p70; experiment: cell-based or functional assay; remark: listed apart in the source
[6] = biological target: T3, recombinant purified mouse IL-12 …; experiment: direct ELISA, plate coated with 5 ug/ml recombinant mouse IL-12
Method: To determine whether the ten monoclonal antibodies described above recognize murine IL-12, two ELISAs were set up. First, a direct ELISA was set up by directly coating ELISA plates with 5 ug/ml of recombinant purified mouse IL-12 (Peprotech). Murine-anti-human IL-12 p40 mAbs were prepared at various concentrations ranging from 3 to 200 ng/ml in PBS containing 0.1% BSA (Sigma, St. Louis, Mo.). 50 μl of each antibody dilution was added to the coated ELISA plate and incubated for 1 hour at room temperature. Wells were washed 3 times with PBS containing 0.05% Tween-20. Anti-mouse IgG-HRP antibody (R&D #HAF007, Minneapolis, Minn.) was diluted 1:2000 in PBS containing 0.1% BSA; 50 ul/well was added and the plates incubated for 1 hour at room temperature. Fifty microliters of TMB solution (Sigma # T0440, St. Louis, Mo.) was added to each well and incubated for 10 minutes at room temperature. The reaction was stopped by addition of 2N sulphuric acid. Plates were read spectrophotmetrically at a wavelength of 450 nm.

[7] = biological target: T2, recombinant purified cyno IL-12 p70; experiment: cell-based or functional assay
[8] = biological target: T1, recombinant purified human IL-12 p70; experiment: cell-based or functional assay; remark: listed apart in the source
[9] = biological target: T1, recombinant purified human IL-12 p70; experiment: SPR (Biacore), mAb captured on anti-mouse IgG Fc, IL-12 p70 as analyte
Method: as §1

Binder | Kd [1] | koff [1] | kon [1] | Av. IC50 (nM) Cyno IL-12, PHA blast assay [2] | Av. IC50 (nM) huIL-12, PHA blast assay [3] | further results
anti-IL-12p40 hybrid antibody 1A6.4 (antibody, human IgG1, kappa, L234A L235A, V domains shown, Hybrid: chimeric murine H chain paired with CDR-grafted L chain) VH: QVTLKESGPGILKPSQTLSLTCSFSGFSLSTSGMGVSWIRQPSGKGLEWLAHIWWDGDNYYNPSLKSQLTISKDTSRNQVFLRIATVDTADTATYYCARRTRVNYAMDYWGQGTSVTVSS VL: EIVMTQSPATLSVSPGERATLSCKASQSVSNDVAWYQQKPGQAPRLLIYYASNRYTGIPARFSGSGSGTEFTLTISSLQSEDFAVYYCQQDYNSPWTFGGGTKVEIKR | 1 nM | 0.00011 s⁻¹ | 110000 M⁻¹ s⁻¹ | 1.2 nM | 2.1 nM | –
anti-IL-12p40 hybrid antibody 1A6.7 (antibody, human IgG1, kappa, L234A L235A, V domains shown) VH: QVTLKESGPGILKPSQTLSLTCSFSGFSLSTSGMGVSWIRQPSGKGLEWLAHIWWDGDNYYNPSLKSQLTISKDTSRNQVFLRIATVDTADTATYYCARRTRVNYAMDYWGQGTSVTVSS VL: DIVMTQSPDSLAVSLGERATINCKASQSVSNDVAWYQQKPGQPPKLLIYYASNRYTGVPDRFSGSGSGTDFTLTISSLQAEDVAVYYCQQDYNSPWTFGGGTKVEIKR | – | – | – | 0.35 nM | 0.29 nM | –
chimeric anti-human IL-12p40 antibody 1D4-Chim (antibody, human IgG1, kappa, L234A L235A, V domains shown) VH: QVTLKESGPGILQPSQTLSLTCSFSGFSLRKSVMGVSWIRQPSGKGLEWLAHIYWDDDKYYNPSLKSRLTISKDPSRNQVFLKITSVDTADAATYYCTRRGIRSAMDYWGQGTSVTVSS VL: SVVMTQTPKFLLVSAGDRVTITCKASQSVSNDVAWYQQKPGQSPKLLIYYASNRYTGVPDRFTGSGYGTDFTFIISTVRAEDLAVYFCQQDYNSPWTFGGGTKLEIKR | – | – | – | – | – | Average IC50 (nM) Cyno IL-12, PHA blast IFN-γ assay [4]: 0.07 nM; Average IC50 (nM) Human IL-12, PHA blast IFN-γ assay [5]: 0.021 nM
anti-IL-12p40 hybrid antibody 1A6.3 (antibody, human IgG1, kappa, L234A L235A, V domains shown) VH: EVTLKESGPVLVKPTETLTLTCTVSGFSLSTSGMGVSWIRQPPGKALEWLAHIWWDGDNYYNPSLKSRLTISKDTSKSQVVLTMTNMDPVDTATYYCARRTRVNYAMDYWGQGTTVTVSS VL: SVVMTQTPKFLLVSAGDRVTITCKASQSVSNDVAWFQQKPGQSPKLLIYYASNRYTGVPDRFTGSGYGTDFTFTISTVQAEDLAVYFCQQDYNSPWTFGGGTKLEIKR | 0.14 nM | 2.6e-05 s⁻¹ | 190000 M⁻¹ s⁻¹ | 0.049 nM | 0.068 nM | –
anti-IL-12p40 hybrid antibody 1A6.8 (antibody, human IgG1, kappa, L234A L235A, V domains shown) VH: EVTLRESGPALVKPTQTLTLTCTFSGFSLSTSGMGVSWIRQPPGKALEWLAHIWWDGDNYYNPSLKSRLTISKDTSKNQVVLTMTNMDPVDTATYYCARRTRVNYAMDYWGQGTTVTVSS VL: SVVMTQTPKFLLVSAGDRVTITCKASQSVSNDVAWFQQKPGQSPKLLIYYASNRYTGVPDRFTGSGYGTDFTFTISTVQAEDLAVYFCQQDYNSPWTFGGGTKLEIKR | – | – | – | 0.06 nM | 0.08 nM | –
murine anti-human IL-12p40 monoclonal antibody 3G7 (antibody, V domains shown, Murine mAb) VH: QVQLQQSGAELMKPGASVKISCKATGYTFNDYWIEWVKQRPGHGLEWIGGFSHGSGSTNYNEKFKGKATFTADSSSNTAYMQLSSLTSEDSAVYYCARRRFRGMDYWGQGTSVTVSS VL: SIVMTQTPKFLLVSAGDRVTITCKASQSVSNDVAWYQQKPGQSPKLLIYYASNRYTGVPDRFTGSGYGTDFTFTITTVQAEDLAVYFCQQDYSSPWSFGGGTKLEIKR | – | – | – | – | – | binding result [6]: no binding (tested: 3 to 200 ng/ml mAb); Average IC50 (nM) Cyno IL-12, PHA blast IFN-γ assay [7]: 0.35 nM; Average IC50 (nM) Human IL-12, PHA blast IFN-γ assay [8]: 0.15 nM; Kd [9]: 0.047 nM; koff [9]: 3.8e-05 s⁻¹; kon [9]: 820000 M⁻¹ s⁻¹

Continued, in another order:

Kd [1] | koff [1] | kon [1] | Av. IC50 (nM) Cyno IL-12, PHA blast assay [2] | Av. IC50 (nM) huIL-12, PHA blast assay [3] | Binder | further results
0.074 nM | 2.1e-05 s⁻¹ | 280000 M⁻¹ s⁻¹ | 1.1 nM | 0.64 nM | anti-IL-12p40 hybrid antibody 1D4.4 (antibody, human IgG1, kappa, L234A L235A, V domains shown) VH: EVTLRESGPALVKPTQTLTLTCTFSGFSLSKSVMGVSWIRQPPGKALEWLAHIYWDDDKYYNPSLKSRLTISKDTSKNQVVLTMTNMDPVDTATYYCARRGIRSAMDYWGQGTTVTVSS VL: SVVMTQTPKFLLVSAGDRVTITCKASQSVSNDVAWYQQKPGQSPKLLIYYASNRYTGVPDRFTGSGYGTDFTFIISTVRAEDLAVYFCQQDYNSPWTFGGGTKLEIKR | –
0.11 nM | 3.1e-05 s⁻¹ | 300000 M⁻¹ s⁻¹ | 0.11 nM | 0.053 nM | anti-IL-12p40 hybrid antibody 1D4.5 (antibody, human IgG1, kappa, L234A L235A, V domains shown) VH: QVTLKESGPGILQPSQTLSLTCSFSGFSLRKSVMGVSWIRQPSGKGLEWLAHIYWDDDKYYNPSLKSRLTISKDPSRNQVFLKITSVDTADAATYYCTRRGIRSAMDYWGQGTSVTVSS VL: DIVMTQSPDSLAVSLGERATINCKASQSVSNDVAWYQQKPGQPPKLLIYYASNRYTGVPDRFSGSGSGTDFTLTISSLQAEDVAVYYCQQDYNSPWTFGGGTKVEIKR | –
